Assay results as given in publication PMC7459334, “Akkermansia muciniphila uses human milk oligosaccharides to thrive in the early life conditions in vitro” (Scientific Reports, 2020).

Key:
Assay in all cases: purified protein
purified protein [1] = substrate: C[C@@H]1O[C@@H](Oc2ccc([N+](=O)[O-])cc2)[C@@H](O)[C@H](O)[C@@H]1O; type: biochemical, Akkermansia muciniphila; conditions: McIlvaine buffer, pH 5.6, 37 °C, text b19 prints 839 ± 46.72
purified protein [2] = substrate: CC(=O)N[C@H]1[C@H](Oc2ccc([N+](=O)[O-])cc2)O[C@H](CO)[C@@H](O)[C@@H]1O; type: biochemical, Akkermansia muciniphila; conditions: McIlvaine buffer
purified protein [3] = substrate: O=[N+]([O-])c1ccc(O[C@@H]2O[C@H](CO)[C@H](O)[C@H](O)[C@H]2O)cc1; conditions: McIlvaine buffer, pH 5.0, 37 °C
[4] = pH 5.6, 37 °C, text b19 prints 322.37 ± 43.64

B1: Amuc_0010 (Akkermansia muciniphila ATCC BAA-835) (protein)
chain: QQSATKIITENGQPALALDEQFAARLRDGGMKQGSPATVPAEFSAAAPGLPLPADANHAAVRETAGERNRRMEWWRDAKFGMFIHYGLYSGLAGEWKGRPGGSEWIQKNVEVDTDTYAAEALPLFKPREGLTEEWAQLARDAGCQYVVLTSKHHEGFGLFDSALTDYDAKSAVNRDIIREYVDSCRKRGLKVGLYHSVIDWHHPSYDNTICPDLCYPAGQAAMLNRKNIPRDHAAYQKYLHAQVRELMTRYAPIDIMWWDYSQGAMEGAKGWKAPELMDMVRSINPGVIMNNRLYAYSGLNKNQAGTLDLRCGDYITPERFIPRRGYPGVDWESCMTVSDKWGYNRYDTNIKSPETIIEKLVECVTKGGNLLLNVNPMADGTIPEKVAATMRGVGRWLNINGEAVYGTRAFMQLDQPATINRQGDIFIFLIPPPDKEPAQPPSEGTMKELTAGAEHARMQPLDATGYENDGGTAVTLPAGYSKALLLGDNTALPVVNGTVLFKAHEHSKTPCSVIKLSK
In the case of B1, the Km (purified protein [1]) is reported as 841.23 ± 46.72 µM, the Vmax (purified protein [1]) is reported as 19.8 µM/min and the kcat (purified protein [1]) is reported as 378 s⁻¹. For the same protein, the kcat/Km (purified protein [1]) was 451000 M⁻¹ s⁻¹.

B2: Amuc_2136 (Akkermansia muciniphila ATCC BAA-835) (protein)
chain: QDAKQIADSLSIPPVKAGAKQLPMPSVSGAQIKLLGADYEQLVNSKGKIAPVISDTPVNVSFKVTKDGKEAVSKDYEIMLQAPQAAQGNPKPRIIPEILQWKGGQGEYKLGNTVTIACPDKELGKLFAADMEDVLGKKVKLVAPGAKADISLSLLKGGNLGREGYRLQIARDGVRLGAAAPTGLFWGTRTLLQMLRQTPGSVPCGTAVDFPRYQLRGFMLDVARTPYPLSYLKDVIRTMAWYKMNDLHLVINNNYIFHEHYVDNGHDPFKESYAAFRLESKMKGKDGTPLTARDLFYTKKEFADLVSYARKYGVNIVPEFDTPGHALSFTRLRPDLIYKGPMNHEKRRCEMLDAANPETIDLVSKVFDEYMLKDPKLGRPVFADCGVVHVGADEFYGDKEDYRHFANAVLTHALKRGYTPRIWGSLSAKPGKTPVVSKGVQMNLWSTGWMKAWEAVNQGYDVINTNDGALYIVPFAGYYRMDRNHKGLYNNWIPNRIGNETLPSGHPQLLGGTFAVWNDETDIMHTGYAPYDIWGIISGSMDVLSQKLWGTAKAPDTFEQHRELVSSIGNAPRTNPLHKWKDSQPLTVKPSSLPQKLDKPALGPNYRLTMELELTAAPEGKEQVLLAAPEGELLAVMKDGTVGFRRDDSLEFSFGAKLPVGKKVKVEIVGEPEKTSLLLDGEPAGTAVLKNFSDKSKDFSDKFKHRPKVHRSTFILPLKELGSSFQGKVFHMNVQPL
B2 showed a Km (purified protein [2]; pH 5.0, 37 °C) of 714.55 ± 47.96 µM, a Vmax (purified protein [2]; pH 5.0, 37 °C) of 109 µM/min and a kcat (purified protein [2]; pH 5.0, 37 °C) of 1490 s⁻¹. The kcat/Km (purified protein [2]; pH 5.0, 37 °C) was 2.08e+06 M⁻¹ s⁻¹.

B3: Amuc_1686 (Akkermansia muciniphila ATCC BAA-835) (protein)
chain: AAPMPLPESNDGARHVFSTNQENFLMDGKPVKIISGEMHYPRVPRQHWKDRFQRIKAMGMNTVCTYLFWNVHEPEPGKWDFSGNLDFVEFIKEAQKAGLWVIVRPGPYVCAEWEFGGFPGWLLKDEDLKVRSQDPRFLEPAMAYLKKVCSMLEPLQITKGGPIIMAQVENEYGSYGSDKDYVKKHLDVIRKELPGVVPFTSDGPNDWMIKNGTLPGVVPAMNFGGGAKGAFANLEKHKGKTPRINGEFWVGWFDHWGKPKNGGSTEGFNRDLKWMLENNVSPNLFMAHGGTSFGFMNGANWEGAYTPDVTNYDYGAPISENGTLTDRYRTFRQTIQDYYGDTYKLPEPPAQPEMMELPPITFTETAGMFSRLPQPVIRKEPVHMEALGQSLGFILYRTKVNGPVKGELKMNNMQDRAIVYVDGKRQGAADRRYKQDSCDIVIPSGLHTVDIFVENMGRINFGGQIQGERKGIRGPITLDGKKLENFLIYNFPCKGVELIPFSGKKPAGDQPVFHRGYFNVSNPKDTYLDMRDGWKKGVVWVNGRNLGRFWFIGSQQALYCPGEYLKPGKNEIVVLDVDGGSGTVKGVKEAIYEVNRDPAMADVFRVGKPVAPAAGQLVHKGSFAKGADQQEIKFRAPVQARYIAIVSKNAHDNGPHAAIAELNFLDASGNLLPREQWSVVYADSHETTGEAAQAGLVMDNQPTTYWHTKWQGDNPRHPHMIVLDLGKVQKLSGFRYLPRQDRENGRIKDYEVYASPKPFKPAK
B3 was tested, and the Km (purified protein [3]) was 319.40 ± 259.30 µM, the Vmax (purified protein [3]) was 29.3 µM/min and the kcat (purified protein [3]) was 27.2 s⁻¹. It also gave a kcat/Km (purified protein [3]) of 70200 M⁻¹ s⁻¹.

B4: Amuc_0771 (Akkermansia muciniphila ATCC BAA-835) (protein)
chain: GPEAVQNVQKPALSGGPPVVFGFGGEGNQEFMLNGKPFQIRGAEMHPQRIPREYWRHRIRTAKAMGLNTIAFYVFWNDHEQPDGSFDFKTGNRDLEGFLKLCQEEGMWVLFRPGPYACGEWDLGGLPHYLLKDPKAKLRTTEDAKFMKAQTRYLEAVARVAEPFLAKNGGPILMTQLENEYGSYQRKDRKYMEWLKAFWSRKGFGPFYTSDGAGEHFLKGVVLPGVAVGLDPGLNDGHWAVANKCNPGVPVFSSETYPGWLRHWGEGNWAPTPGVVNHVRWFMDKGRSFSLFVFHGGTNFGFSAGANNGGPGKYQPDLTSYDYGSPVDEQGRMNEYYAQMREIILKKLPPEAAVPEPPADIPAMEIPEFTPAVHAGLWENLPKPFRSKFPQPPYFEQWNQNQGIAVYRTAVPSGPPETLEFTNVNDYAQVYLDGELVGTLDRRLGQKSVKLPERRKPGTLEVLVEAMGHINFHISMESDRKGIYGPVKLGTRELKNWTVRALPLKADSIVRAPKGKGPSQKREGAHFRAVVNIEEPQDTFLDMSRYVKGYVWVNGINVGRYWNVGPQLRLYVPAPFLKKGENVIDILDLHEKEPKPVRGMKERNKEPGKINTKNLDNQW
B4 was tested, and the Km (purified protein [3]) was 2,599 ± 565.27 μM, the Vmax (purified protein [3]) was 60.1 µM/min and the kcat (purified protein [3]) was 13.8 s⁻¹. It also gave a kcat/Km (purified protein [3]) of 5670 M⁻¹ s⁻¹.

B5: Amuc_0369 (Akkermansia muciniphila ATCC BAA-835) (protein)
chain: QEQIIPKPAEITLFTGSPARLTPDSLIITETQDKAFLDQAGQLQQMLSAGTGLPLPLKPAGQASKKAACIVIKKDPALAARGEEAYSIQSSPSGIILSAADARGIFYAGQSLVQMMPSVFHDRTGDKSAVRWNISETPFRITDYPRFSWRALMIDEARHFFGEKTIKQIIDQMALLKMNILHWHLTDDTGWRIEIKKYPRLTSIGSKRRESEIGTWNSGKSDGTPHEGFYTQEQIRDIVQYAARRNITIVPEIEMPGHASAAAVAYPFLSLKTPGEVPTTFIVNTAFDPTSEKTYAFLSDVLDEVTAIFPGRIIHIGGDEVRYDKQWKGVPEIEEFMKKNGMKSYADVQMHFTNRMSGIIAQKGRRMMGWNEIYGHDVNGDGGGKAGAKLDTNAVIQFWKGNTSLAKNAIRDGHDVINSLHTSTYLDYSYGSIPLQKAYGFEPVFPGLEKQYHSRVKGLGAQVWTEWISTPERLHYQAFPRACAFAEVGWTPAGKKDFPDFKKRLKAYSERMDLMGIKFARNVISQIDKSDFFNTPRIGTWTPATLTREEHSFDVTKLVKASGKHTVTLLYDKGAHAIEIESVALYENSREVSRDAHAGRSGAHKENIQYILNAPAPRQGATYTVKANFKGAGGRDSHGTVYFETP
B5 gave a Km (purified protein [2]; [4]) of 323.38 ± 43.64 µM, a Vmax (purified protein [2]; [4]) of 55.6 µM/min and a kcat (purified protein [2]; [4]) of 670 s⁻¹. The kcat/Km (purified protein [2]; [4]) was 2.07e+06 M⁻¹ s⁻¹.
